From the supplement of paper PMC12042874 come the findings set out here.

± gives the uncertainty stated by the source.

The data set can be described thus: amyloid nucleation score (Sup35N fusion, yeast selection) (log enrichment); library NNK2; higher = more nucleation; inactive = no reads after selection. The procedure, abridged:
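The nucleation score is the DiMSum log enrichment of output over input reads, centred on the mode score of non-aggregating sequences. Only sequences with 100 or more input reads were scored, using Illumina sequencing of input and output plasmid inserts. Psi-negative yeast expressing Sup35N fused to peptides of 20 random codons were induced 24 hours with 100 μM copper sulfate and grown 7 days at 30°C on medium lacking adenine and uracil.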

For TCLTFRFI, the amyloid nucleation score entry is “inactive”.
Consider FGFFTTYSELAVQVIQSAVT, for which the amyloid nucleation score was -0.032 ± 1.1.
For YTLFNDASRLFD the value was “inactive”; for KSSDGPKAQV, 1.13 ± 0.16.
For KYCHLWCEKGMELSALSEAV the value was 0.001 ± 0.76; for EIHYMCELIMQWVYSGLTSR, 0.607 ± 0.35.
For RSCMASEYGT the value was -0.971 ± 0.64.
In turn, RLHRTILHVSRTGQFGAHQC had an amyloid nucleation score of 0.989 ± 0.35.
The result for SSMRRGVIRRCNYKL reads -0.992 ± 0.24.
For MYVMTHNL the value was 0.776 ± 0.44; for CFANRNRFFMSLSEHHTFDG, -0.798 ± 1.1.
The result for VFYNAASDFLAILQEFTSSH reads “inactive”; that for VSISCSVWIMGRVYLIRYSG, -1.36 ± 0.78.
Substance ILFVLWKLDRRPCSLLEYTQ showed an amyloid nucleation score of 0.463 ± 0.56.
For IALTQILLRFFGLHA the value was -0.305 ± 1.1.
The result for TDWGTLARMGLASLC reads “inactive”; that for LVFMAFC, 4.839 ± 0.04.
Turning to ISPTKSNLYMADVEFREPGT, the amyloid nucleation score was -0.883 ± 0.49.
For SYYTL the value was “inactive”; for GPRLEGWSPPDRAVLSGCSD, 0.656 ± 0.44.
The result for WYLYFFVFLLHMNRNLFLVL reads -1.63 ± 0.55.
For QRRQVDSVM the value was 1.27 ± 0.27; for RYWKFA, 0.744 ± 0.74; for CQRTLQTGAYRDGLCIYGLS, 1.38 ± 0.41.
Substance CTSMGA yielded an amyloid nucleation score of -0.291 ± 0.79.
The result for RLTPYTFTWSVFEMFNLRMP reads -1.09 ± 0.49; that for FSRGDIVA, 4.41 ± 0.056.
The result for YYPGL reads -1.45 ± 1.1; that for MSLSNDHSGAVWRRAFGYSE, 0.51 ± 0.51.
For RPMLVVSGGTSVLWDWAASD the value was 0.422 ± 0.64; for RVSTEVFCSLLVGTHLGRGP, 4.24 ± 0.13; for ELTGYT, -0.388 ± 0.56.
For SVTVHFENVVDIRYVCVTMG, the amyloid nucleation score amounted to 0.341 ± 0.65.
For IWYCRK the value was -1.11 ± 0.44; for NNVPCRSIADVYALEFLYAS, “inactive”; for TNITGVIRVL, -0.211 ± 0.31.
For VSYEVVINRYFGKHCCGTII the value was “inactive”.
The substance YGNSYRG displayed an amyloid nucleation score of -0.044 ± 0.55.
The result for LIYRCN reads -0.673 ± 1; that for FLHVSRDLPYYYCFLV, -0.703 ± 0.74.
Substance RLWNSGCLS had an amyloid nucleation score of -0.916 ± 0.76.
Consider WKKSMKIVNKYAVSLPDVGR, for which the amyloid nucleation score turned out to be 0.29 ± 0.51.
The result for KSFIGWLYMDTEYHWMYQPW reads 0.27 ± 0.28; that for VFLAPRMF, -0.864 ± 0.45.
The result for KHIKWKDCSG reads -0.091 ± 0.65.
Substance NICRM yielded an amyloid nucleation score of -0.058 ± 0.53.
Substance IMIFSLVTMLDVNGTIC gave an amyloid nucleation score of 7.477 ± 0.047.
Regarding YSWVEPRSRRAVEHDS, the amyloid nucleation score came to 0.551 ± 0.3.
For SRFCEH the value was -0.164 ± 0.39; for LCACIELSNKMLLTFNSNVK, -0.517 ± 0.32; for GLVNSTPRKRKLFKGDAVHS, 0.321 ± 0.48.
For the substance MFSRIWPSSDL, the amyloid nucleation score was -0.324 ± 1.1.
For IKIIPPLKLLCVLGWHSRGA the value was 1.35 ± 0.19; for RSLVLYSGRKVLS, -0.516 ± 0.27.
For RTGGNILQYFYIVRAHSGWC the value was 1.35 ± 0.16.
For YVSNLEK the value was -0.073 ± 1.
Substance MLWVWSLSQTLVRTKVRVLS registered an amyloid nucleation score of 0.024 ± 0.5.
For EADLYSTAIQLDK the value was -0.313 ± 0.44.
For WKFRNN the value was “inactive”; for GWLHMYY, -0.268 ± 0.36; for LCFQVVMPWNNISLSFLWLG, 0.759 ± 0.52.
As to TDECWIGYFNSSAI, the amyloid nucleation score was -0.053 ± 1.
For LLWQTYIPNAGENAVSSQLF the value was -0.87 ± 1.
The result for SYNLETFIFLWKESG reads “inactive”; that for MMWLSARMQR, 6.727 ± 0.049; that for VCWTNSWVCNSGVLSGVGAA, 1.41 ± 0.18.
For SIGGMMVPLISLKYSY the value was -0.784 ± 1.1; for QMVGWSMYWIKVMRISA, 0.105 ± 1.1; for KGGQK, -0.493 ± 0.34.
For RGCGFRIDVGKRWRNRIKSV, the amyloid nucleation score result was “inactive”.
ARRKVSHNV gave an amyloid nucleation score of 0.205 ± 0.77.
The result for ISLAINIAPLLLCTESTEWG reads -0.133 ± 0.65; that for HFDEPFFCCAGMHAH, 6.8 ± 0.056; that for DVAIRVYYMYMYERYVTRLF, “inactive”.
The substance GKSSHG gave an amyloid nucleation score of 0.93 ± 0.32.
Substance CMFKQYYYCARAYSVSWTVM gave an amyloid nucleation score of -0.013 ± 0.56.
The substance IINWPQLFKVASWTPSKTPP came in with an amyloid nucleation score of -0.07 ± 0.76.
In turn, VIMMSNNSERYYVEQIFVSG displayed an amyloid nucleation score of 0.09 ± 0.41.
The result for FFSVPGAWCDKWALALANY reads -0.564 ± 0.38; that for WASIV, 0.049 ± 0.8.
The result for MMYDRIIQFTLYTLI reads 3.09 ± 0.057; that for FLGDWKTCKVTGACKLCYGG, -0.018 ± 0.42.
The result for SHSYFSYTFQILLCEAVRGG reads -0.124 ± 0.76.
In turn, NLCSKRRNL displayed an amyloid nucleation score of -0.927 ± 0.78.
Take HGLLTKLWRPFMHGSV: the amyloid nucleation score stood at 0.203 ± 0.31.
Regarding MFSIYLLSCPLYISMNWSCR, the amyloid nucleation score turned out to be 0.183 ± 1.
The result for NCAVFTSGR reads -0.478 ± 0.63.
LRGYVY had an amyloid nucleation score of 0.228 ± 1.
For WGSSFR the value was 0.592 ± 0.24; for WNTISRLCDLWLRVAYGSLV, 0.461 ± 0.65.
The result for LVSMLVFL reads 2.15 ± 0.15; that for NGGDRVLSFDIIIAGSLVAK, -0.354 ± 0.39.
Turning to NGVSMESRFQFSDWWNPTYY, the amyloid nucleation score is -0.847 ± 0.64.
Take DPNLPETVTGVIMFASVGGA: the amyloid nucleation score was -0.13 ± 0.76.
For YDYNCRDVWIWHA the value was -0.184 ± 0.63; for EWNAKLWSLPSGATGCKSQS, 1.16 ± 0.2.
The result for VCVLGIGT reads “inactive”; that for CKLTATCQSQMTEIGLGSFA, 3.62 ± 0.046.
For the substance KCIYDFHHRKSSVRDSLSFH, the amyloid nucleation score was -1.6 ± 0.75.
The result for GRSGIFCLPCMLCKFY reads 6 ± 0.064.
The result for GGQDDVIGLRKSVMAENRVH reads 0.537 ± 0.42; that for NWLIMYNFAR, “inactive”; that for LIERDNTWRATSRCITIESG, 1.17 ± 0.45.
The result for IFLKWLYKSFDYNI reads 0.973 ± 0.23; that for NRKWIDRLVYKGNNPYHGEV, 0.906 ± 0.57; that for NIFRRLLSIIIVFDQDRRKM, -1.01 ± 1.1.
The substance RSTERCNYTCVNWVVL displayed an amyloid nucleation score of 7.748 ± 0.048.
The result for QKRRDFVVHCIRELWFYEHD reads “inactive”.
For NSRNSSYKWFSSSFVHVADF the value was 1.71 ± 0.088; for LTLHICRAAVYSYGTLS, 1.63 ± 0.12.
The result for SHSVRTMFPGGVNPRNIRGY reads 0.548 ± 0.64.
TIYHSGRCLRKKGRELW registered an amyloid nucleation score of -0.139 ± 0.37.
The result for GFYYRRSMESGNTFSGCSTA reads -0.776 ± 0.62.
For CVDVDIKMLPGFCRCNIPLC the value was -1.34 ± 1.1; for FCALPWGFFGYMGNLNLYSD, 2.62 ± 0.083; for NRKTIIVEPTNACRS, 0.775 ± 0.29.
For RPDNSDV the value was -1.61 ± 0.54.
For the substance SVSLNCSPLFFYFRRYKVSR, the amyloid nucleation score was determined as 6.052 ± 0.038.
The result for RSDCCRDQYT reads -0.311 ± 1.1; that for MRSYRLYLIPFHFLGWLINS, “inactive”.
CARVMLFIMSEMIEFTFYGL had an amyloid nucleation score of 2.89 ± 0.14.
With TCIVSRRSCTCNRSQSGYRR, the amyloid nucleation score worked out at 1.08 ± 0.22.
Take RARARHDLRGQRKVLRDRRF: the amyloid nucleation score stood at 0.849 ± 0.5.
For ACCLIAIWRPI the value was 5.47 ± 0.085; for LCRYTCSSLSVYLNNMILCG, 1.33 ± 0.13.
Substance LVYTPCLILGDELAVTGVKR yielded an amyloid nucleation score of -0.337 ± 0.23.
The result for SLHMFLVIFSYLLVANRGKS reads 0.246 ± 0.65; that for VWIFSSSIKTTLYKHLLSNT, -0.539 ± 0.74; that for YTNSMTHAYTVLWRYMSPTN, 3.52 ± 0.084.
As to VAKRISHGIQLSLSCKGTRP, the amyloid nucleation score came out at 0.138 ± 0.76.
The substance KYGDNSMYLMLLMVCYKGAC registered an amyloid nucleation score of -0.622 ± 1.1.
For WFVGCHTVRR the value was 0.84 ± 0.33; for KFLIWRNFLYSVIMAVAW, “inactive”.
The result for RLFTRANCIHFRERKVRKIH reads 0.078 ± 0.29; that for MYCYSHDQCESLGQRSFGDT, 0.218 ± 0.8; that for TFILFGRFEQTKVSVW, 3.67 ± 0.075.
The result for SLRDARGRSYYRFNIISVML reads 5.591 ± 0.033.
Consider IIWQPHSPCVRVYTCLSLIF, for which the amyloid nucleation score is -1.67 ± 0.53.
The result for MVVGFRLPERLTYWRGGHMS reads 5.324 ± 0.047; that for SLSGHDLNWRFI, 0.32 ± 0.74; that for FCKRKVTCVVY, -0.538 ± 0.45.
The result for VRCRDENHVVELSGGEVPDS reads 0.066 ± 1.
